Measured values taken from paper PMC10853764.
Residue numbers refer to the chain shown, from its start.

Assays:
[1] = target: Caulobacter crescentus full length DriD, tag-free (Caulobacter crescentus); assay: mass photometry
[2] = target: Caulobacter crescentus full length DriD, tag-free (Caulobacter crescentus); assay: cross-linking
[3] = target: Caulobacter crescentus full length DriD with His-tag (Caulobacter crescentus); assay: SEC
[4] = target: DriD(V73P-F74P) with His-tag (Caulobacter crescentus); assay: SEC
[5] = target: DriD(L10E) with His-tag (Caulobacter crescentus); assay: SEC
DriD(V73P-F74P) = target: T1, DriD(V73P-F74P) (Caulobacter crescentus, UniProt Q9A999 5-331, V77P;F78P); assay: fluorescence polarization
T1 sequence: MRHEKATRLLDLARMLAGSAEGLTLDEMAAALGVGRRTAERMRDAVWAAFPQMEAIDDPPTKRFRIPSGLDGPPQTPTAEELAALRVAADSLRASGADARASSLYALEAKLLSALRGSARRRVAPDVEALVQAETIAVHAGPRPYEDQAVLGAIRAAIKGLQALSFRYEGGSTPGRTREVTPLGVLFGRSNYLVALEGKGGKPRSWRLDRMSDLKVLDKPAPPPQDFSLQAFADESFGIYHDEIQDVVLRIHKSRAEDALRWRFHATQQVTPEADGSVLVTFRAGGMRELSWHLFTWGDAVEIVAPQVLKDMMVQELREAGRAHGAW

DriD(T61A-K62A) = target: T2, DriD(T61A-K62A) (Caulobacter crescentus, UniProt Q9A999 5-331, T65A;K66A); assay: fluorescence polarization
T2 sequence: T1 sequence with T61A, K62A, P73V, P74F

DriD(L10E) = target: T3, DriD(L10E) (Caulobacter crescentus, UniProt Q9A999 5-331, L14E); assay: fluorescence polarization
T3 sequence: T1 sequence with L10E, P73V, P74F

DriD WT [6] = target: T4, DriD WT (Caulobacter crescentus, UniProt Q9A999 5-331); assay: fluorescence polarization
T4 sequence: T1 sequence with P73V, P74F

DriD(E40K) = target: T5, DriD(E40K) (Caulobacter crescentus, UniProt Q9A999 5-331, E44K); assay: fluorescence polarization
T5 sequence: T1 sequence with E40K, P73V, P74F

DriD(E40A) = target: T6, DriD(E40A) (Caulobacter crescentus, UniProt Q9A999 5-331, E44A); assay: fluorescence polarization
T6 sequence: T1 sequence with E40A, P73V, P74F

DriD WT [7] = target: T4, DriD WT; assay: fluorescence polarization; remark: listed apart in the source
DriD WT [8] = target: T4, DriD WT; assay: X-ray crystallography 2.74 A

Question: How did the stoichiometry N [1] turn out when “Caulobacter crescentus full length DriD, tag-free (natural protein)” was run?
Answer: 2

Question: And the stoichiometry N [2]?
Answer: 2

Question: For “Caulobacter crescentus full length DriD with His-tag (natural protein)”, which stoichiometry N [3] is on record?
Answer: 2

Question: With “DriD(V73P-F74P) with His-tag (natural protein)” as the molecule, how does the stoichiometry N [4] read?
Answer: 2

Question: For “DriD(L10E) with His-tag (natural protein)”, which stoichiometry N [5] is on record?
Answer: 2

B1: driD promoter 21 bp site (FP) (dsDNA)
DNA 1: ATACGACAGTTACTGTCGTAT
DNA 2: ATACGACAGTAACTGTCGTAT
Question: How did the Kd (DriD(V73P-F74P)) turn out when B1 was run?
Answer: 133 ± 10.4 nM

Question: What about the Kd (DriD(T61A-K62A)) of the same molecule?
Answer: 1200 ± 200 nM

Question: What about the Kd (DriD(L10E)) of the same molecule?
Answer: 120 ± 23.6 nM

Question: What about the Kd (DriD WT [6]) of the same molecule?
Answer: 1.6 ± 0.04 nM

Question: What about the binding signal (DriD(E40K)) of the same molecule?
Answer: 83 fold reduction vs WT protein

Question: What about the binding signal (DriD(E40A)) of the same molecule?
Answer: 7 fold reduction vs WT protein

B2: C1/G15 to T/A (dsDNA)
DNA 1: ATATGACAGTTACTGTCATAT
DNA 2: ATATGACAGTAACTGTCATAT
Question: How did the Kd (DriD WT [6]) turn out when B2 was run?
Answer: 6.9 ± 1.7 nM

B3: C4/G12 to T/A (dsDNA)
DNA 1: ATACGATAGTTACTATCGTAT
DNA 2: ATACGATAGTAACTATCGTAT
Question: For B3, which Kd (DriD WT [6]) is on record?
Answer: 962 ± 182 nM

B4: position 3/13 mutant (T3/A13 to C/G in text) (dsDNA)
DNA 1: ATACGGCAGTTACTGCCGTAT
DNA 2: ATACGGCAGTAACTGCCGTAT
Question: Which Kd (DriD WT [6]) does the source give for B4 here?
Answer: 7.1 ± 0.9 nM

B5: GC-rich center mutant (dsDNA)
DNA 1: ATACGACGGCCGCCGTCGTAT
DNA 2: ATACGACGGCGGCCGTCGTAT
Question: B5 was tested. Which binding signal (DriD WT [7]) did it give?
Answer: 20 fold reduction vs WT site

B6: G2/C14 to A/T (dsDNA)
DNA 1: ATACAATAGTTACTATTGTAT
DNA 2: ATACAATAGTAACTATTGTAT
Question: B6 was tested. Which Kd (DriD WT [6]) did it give?
Answer: 512 ± 227 nM

Question: Does TGTCTAT (ssDNA) [7mer ssDNA effector] bind (DriD WT [8])?
Answer: binds
